Literature values as cited in publication PMC7650819.

Tests used:
[1] = molecular target: thrombin (human plasma) (Homo sapiens) (UniProt P00734+P00734); test: literature value; details: AIR; ABB: 50 mM Tris-HCl, 140 mM NaCl, 1 mM MgCl2, 1% BSA, 0.05% Triton X-100, pH 7.4, overnight at 4 °C; aptamers refolded in 5 mM Tris-HCl, 1 M NaCl, 0.5 mM …
TGF-β1 (Homo sapiens) = TGF-β1 (Homo sapiens) (UniProt P01137); test: literature value; details: DNA with phosphorothioates at positions marked by asterisks: CGCTCGGCTTCACGAGATTCGTGTC*GTTGTGTC*C*TGTA*C*C*C*GC*C*TTGA*C*C*A*GTC*A*C*TC*TA*GA*GC*A*TC*C*GGA*C*TG …; AIR; ABB: 50 mM Tris-HCl, 140 mM NaCl, 1 mM MgCl2, 1% BSA, 0.05% Triton X-100, pH 7.4, overnight at 4 °C; aptamers refolded in 5 mM Tris-HCl, 1 M NaCl, 0.5 mM E
Chain of TGF-β1 (Homo sapiens) (P01137 279-390): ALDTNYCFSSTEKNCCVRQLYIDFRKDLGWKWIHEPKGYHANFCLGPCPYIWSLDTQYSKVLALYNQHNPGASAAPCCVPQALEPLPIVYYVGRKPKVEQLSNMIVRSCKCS

Sequence | Kd [1] | Kd (TGF-β1 (Homo sapiens))
TTTTTTTTTTTTTTTTTTTTAGTCCGTGGTAGGGCAGGTTGGGGTGACT [Thrombin 29-mer aptamer] | 0.5 nM | –
TTTTTTTTTTTTTTTTTTTTCGCTCGGCTTCACGAGATTCGTGTCGTTGTGTCCTGTACCCGCCTTGACCAGTCACTCTAGAGCATCCGGACTG [TGF-β1 thioaptamer] | – | 90 nM
TTTTTTTTTTTTTTTTTTTTGGTTGGTGTGGTTGG [Thrombin 15-mer aptamer] | 100 nM | –
